The values below come from patent US12304939B2, “EGFR and C-met fibronectin type III domain binding molecules” (Janssen Biotech, Inc., priority 2012, dated 2025).

For orientation: IC50 means the point on the concentration scale where inhibition reaches its midpoint. Broadly, the EC50 is the concentration at which the effect is half-maximal. Read a high EC50 as a less potent agent.

Experiment [1] deals with T1, EGFR (Homo sapiens, UniProt P00533). The experiment in a line: Inhibition of EGFR phosphorylation in NCI-H292 cells. It is filed as cell-based. As to conditions: FIG. 5A. Also on record: host or cells: NCI-H292. The protocol: Purified EGFR-binding FN3 domains were tested for their ability to inhibit EGF-stimulated phosphorylation of EGFR in A431 cells at a single concentration. EGFR phosphorylation was monitored using the EGFR phospho(Tyr1173) kit (Meso Scale Discovery). […] Controls were treated with starvation medium only. […] One set of control wells was left un-stimulated as negative controls. Medium was completely removed, and cells were lysed with 100 μL/well of Complete Lysis Buffer (Meso Scale Discovery) for 10 minutes at room temperature with shaking, as per the manufacturer's instructions. […] Signals were detected by addition of 150 μL/well of Read Buffer (Meso Scale Discovery) and reading on a SECTOR® Imager 6000 instrument (Meso Scale Discovery) using manufacturer-installed assay-specific default settings. Percent inhibition of the EGF-stimulated positive control signal was calculated for each EGFR-binding FN3 domain.
NCI-H292, NCI-H441, or NCI-H596 cells were plated in 96 well plates in RPMI medium containing 10% FBS. […] Cells were lysed with MSD Lysis Buffer and cell signaling was assessed using appropriate MSD Assay plates, according to manufacturer's instructions, as described above.

In experiment [2] the target is T1, EGFR. The experiment in a line: Inhibition of EGFR phosphorylation in NCI-H441 cells. It is filed as cell-based. Also on record: host or cells: NCI-H292. As to conditions: FIG. 5C. The protocol:
(§1) NCI-H292, NCI-H441, or NCI-H596 cells were plated in 96 well plates in RPMI medium containing 10% FBS. 24 hours later, medium was replaced with serum free RPMI. […] Cells were treated for 1 h with the monospecific or bispecific molecules and then stimulated with EGF, HGF, or a combination of EGF and HGF for 15 minutes at 37° C., 5% CO2. Cells were lysed with MSD Lysis Buffer and cell signaling was assessed using appropriate MSD Assay plates, according to manufacturer's instructions, as described above.

In experiment [3] the target is T1, EGFR. The experiment in a line: Inhibition of EGFR phosphorylation in NCI-H596 cells. It is filed as cell-based. Also on record: host or cells: NCI-H292. To be noted: FIG. 5B. Here is the method: as §1
For another experiment, the target named is T2, c-Met-Fc fusion protein (Homo sapiens, UniProt P08581).
T2 construct: recombinant EGFR and/or c-Met extracellular domain
The experiment in a line: c-Met-Fc affinity by surface plasmon resonance (Proteon). It is filed as binding. As to conditions: bispecific molecules; read-out: KD (c-Met).

The subject of a further experiment is H292 cells. Put plainly: Inhibition of proliferation of HGF-induced H292 cells. It is filed as cell-based, human. To be noted: bispecific molecules. From the text:
Inhibition of tumor cell proliferation can be measured using standard methods and methods described herein.
The proliferation assay was completed using different combinations EGFR and c-Met binding FN3 domains either as a mixture or linked in a bispecific format. […] This confirmed that the avidity effect observed at the level of the receptors (FIG. 4 and FIG. 5) translates into an improvement in inhibiting cell signaling (Table 12) and cell proliferation (Table 13).
Inhibition of human tumor cell growth was assessed in standard attachment culture as described in Examples 3 or 6, or in low attachment conditions.

Experiment [4] addresses T3, recombinant EGFR extracellular domain (EGFR-Fc) (Homo sapiens, UniProt P00533).
T3 construct: purchased R&D Systems
Put plainly: EGFR-Fc affinity by surface plasmon resonance (Proteon). It is filed as binding. Here is the method:
Select EGFR-binding FN3 domains were screened to identify those with slow off-rates (koff) in binding to EGFR-Fc on a ProteOn XPR-36 instrument (Bio-Rad) to facilitate selection of high affinity binders. Goat anti-human Fc IgG (R&D systems), at a concentration of 5 μg/mL, was directly immobilized via amine coupling (at pH 5.0) on all 6 ligand channels in horizontal orientation on the chip with a flow rate of 30 μL/min in PBS containing 0.005% Tween-20. The immobilization densities averaged about 1500 Response Units (RU) with less than 5% variation among different channels. EGFR-Fc was captured on the anti-human Fc IgG surface to a density around 600 RU in vertical ligand orientation. All tested FN3 domains were normalized to a concentration of 1 μM and tested for their binding in horizontal orientation. […] The dissociation phase was monitored for 10 minutes at a flow rate of 100 μL/min. […]
Binding affinity of selected EGFR-binding FN3 domains to recombinant EGFR extracellular domain was further characterized by surface Plasmon resonance methods using a Proteon Instrument (BioRad). […] The dissociation phase for all concentrations of each EGFR-binding FN3 domain was monitored at a flow rate of 100 μL/min for 30 minutes (for those with koff ˜10^−2 s^−1 from off-rate screening), or 1 hour (for those with koff ˜10^−3 s^−1 or slower). […]

The test system of a further experiment is NCI-H322 cells. The experiment in a line: NCI-H322 growth assay. It is filed as cell-based, human. As to conditions: 120 hours, CellTiter-Glo. The protocol:
(§2) Inhibition of EGFR-dependent cell growth was assessed by measuring viability of the EGFR over-expressing human tumor cell lines, NCI-H292 and NCI-H322 (American Type Culture Collection, cat. #CRL-1848 & #CRL-5806, respectively), following
(§3) exposure to EGFR-binding FN3 domains. […] Cells were treated by addition of 5 μL/well of phosphate-buffered saline (PBS) containing a concentration range of EGFR-binding FN3 domains. Controls were treated with 5 μL/well of PBS only or 25 mM ethylenediaminetetraacetic acid in PBS. […] Viable cells were detected by addition of 75 μL/well of CellTiter-Glo® reagent (Promega), followed by mixing on a plate shaker for 2 minutes, and incubation in the dark at room temperature for a further 10 minutes. Plates were read on a SpectraMax M5 plate reader (Molecular Devices) set to luminescence mode, with a read time of 0.5 seconds/well against a blank of medium only. Data were plotted as a percentage of PBS-treated cell growth against the logarithm of FN3 domain molar concentration.
Background: ATP-based viability assays read luminescence as a measure of living cells.

For a further experiment, the target named is EGFR on A431 cells (Homo sapiens, UniProt P00533). The experiment in a line: A431 cell binding assay. As to conditions: purified FN3 domains.
Another experiment relates to NCI-H292 cells. The experiment in a line: NCI-H292 growth assay. It is filed as cell-based, human. As to conditions: 120 hours, CellTiter-Glo. The protocol:
as §2, §3

Experiment [5] deals with T1, EGFR. The experiment in a line: Phospho-EGFR assay: inhibition of EGF-stimulated EGFR phosphorylation (Tyr1173) in A431 cells. To be noted: 50 ng/mL EGF. It is filed as cell-based.
In experiment [6] the target is EGF binding to EGFR on A431 cells (Homo sapiens, UniProt P00533). The experiment in a line: A431 cell EGF competition assay. As to conditions: 30 ng/mL biotinylated EGF. Here is the method:
To better characterize the mechanism of EGFR binding, the ability of various identified FN3 domain clones to bind EGFR in an EGF-competitive manner was measured using A431 cells and run in parallel with the A431 binding assay screen. […] Biotinylated EGF (Invitrogen, cat. #E-3477) was added to each well for a final concentration of 30 ng/mL and incubated for 10 minutes at room temperature.
Bacterial lysates containing the FN3 domains were screened in the EGF competition assay described above.
Biotinylated EGF (Invitrogen, Cat #: E-3477) was added to each well to give a final concentration of 30 ng/mL and incubated for 10 minutes at room temperature.

Where two headings read alike, the source gives them in different places.

T2 sequence (P08581 25-932 limits assumed): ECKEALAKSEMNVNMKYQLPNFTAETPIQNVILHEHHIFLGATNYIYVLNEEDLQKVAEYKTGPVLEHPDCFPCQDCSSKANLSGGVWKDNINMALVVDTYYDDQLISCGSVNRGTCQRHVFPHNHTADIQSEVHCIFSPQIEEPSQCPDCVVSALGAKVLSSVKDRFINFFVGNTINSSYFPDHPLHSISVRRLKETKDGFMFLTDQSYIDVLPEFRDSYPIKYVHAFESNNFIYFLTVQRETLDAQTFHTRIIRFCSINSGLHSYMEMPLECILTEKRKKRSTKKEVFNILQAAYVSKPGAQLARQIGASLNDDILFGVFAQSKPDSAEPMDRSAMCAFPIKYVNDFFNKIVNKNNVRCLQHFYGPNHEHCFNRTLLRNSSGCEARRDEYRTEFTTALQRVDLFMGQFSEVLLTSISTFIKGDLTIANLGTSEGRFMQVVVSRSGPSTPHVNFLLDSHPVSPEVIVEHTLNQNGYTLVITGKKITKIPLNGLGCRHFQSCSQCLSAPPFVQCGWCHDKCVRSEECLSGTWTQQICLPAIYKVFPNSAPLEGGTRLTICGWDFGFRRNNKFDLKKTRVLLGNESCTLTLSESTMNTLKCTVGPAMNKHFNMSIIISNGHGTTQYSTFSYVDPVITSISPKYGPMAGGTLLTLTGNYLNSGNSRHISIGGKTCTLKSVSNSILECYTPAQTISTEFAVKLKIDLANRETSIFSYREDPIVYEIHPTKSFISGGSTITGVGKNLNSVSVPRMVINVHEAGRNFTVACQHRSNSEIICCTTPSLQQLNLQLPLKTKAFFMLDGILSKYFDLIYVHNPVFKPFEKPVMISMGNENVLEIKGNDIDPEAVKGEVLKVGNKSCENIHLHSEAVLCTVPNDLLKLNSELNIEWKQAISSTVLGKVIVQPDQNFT

B1: ECB5: bispecific SEQ ID NO: 54: P53A1R5-17v2, (GGGGS)4, P114AR7P94-A3 (protein)
chain: MLPAPKNLVVSEVTEDSARLSWADPHGFYDSFLIQYQESEKVGEAIVLTVPGSERSYDLTGLKPGTEYTVSIYGVHNVYKDTNMRGLPLSAIFTTGGGGSGGGGSGGGGSGGGGSMLPAPKNLVVSRVTEDSARLSWTAPDAAFDSFWIRYFEFLGSGEAIVLTVPGSERSYDLTGLKPGTEYVVNIMGVKGGKISPPLSAIFTT
modifications: bispecific EGFR/cMet binding molecule
For the molecule B1, the “inhibition of phosphorylation of EGFR, bispecific versus monospecific” value in the experiment with EGFR [1] and in the experiment with EGFR [3] was “comparable” each time. For the same molecule, the “decrease of IC50 for inhibition of EGFR phosphorylation compared to monospecific EGFR-binding FN3 domain” value with EGFR [2] was found to be 30 fold.

B2: ECB168: bispecific SEQ ID NO: 190: P54AR4-83v22, (AP)5, P114AR7P95-C5v2 (protein)
chain: MLPAPKNLVVSEVTEDSARLSWDDPWAFYESFLIQYQESEKVGEAIVLTVPGSERSYDLTGLKPGTEYTVSIYGVHNVYKDTNIRGLPLSAIFTTAPAPAPAPAPLPAPKNLVVSRVTEDSARLSWTAPDAAFDSFWIRYFEFLGSGEAIVLTVPGSERSYDLTGLKPGTEYVVNILSVKGGSISPPLSAIFTT
modifications: Bispecific EGFR/c-Met molecule
For B2, the Kd with c-Met-Fc fusion protein stood at 0.32 nM; in [4] (bispecific molecules, read-out: KD (EGFR)), 0.4 nM. The IC50 in the experiment on H292 cells is 3.1 nM.

B3: P54AR4-47: EGFR-binding FN3 domain, SEQ ID NO: 20 (protein)
chain: LPAPKNLVVSEVTEDSLRLSWGYNGDHFDSFLIQYQESEKVGEAINLTVPGSERSYDLTGLKPGTEYTVSIYGVHNVYKDTNMRGLPLSAEFTT
modifications: EGFR binding FN3 domain
On to B3, for which the concentration for half-maximal inhibition (IC50) was 39 nM with NCI-H322 cells, 44 nM with NCI-H292 cells, 295 nM in the experiment with EGFR [5] and 7.1 nM in [6]. In addition, the EC50 in the experiment with EGFR on A431 cells came out at 8.6 nM. Also, the Kd in [4] (SPR, 1:1 Langmuir fit, read-out: EGFR-Fc Affinity) was determined as 2.51 nM.
